The assay concerns the target Recombinant human GCK (residues 16-465) fused to a N-terminal hexahistidine tag (human) (UniProt P35557).
Sequence of UniProt P35557 (P35557 16-465): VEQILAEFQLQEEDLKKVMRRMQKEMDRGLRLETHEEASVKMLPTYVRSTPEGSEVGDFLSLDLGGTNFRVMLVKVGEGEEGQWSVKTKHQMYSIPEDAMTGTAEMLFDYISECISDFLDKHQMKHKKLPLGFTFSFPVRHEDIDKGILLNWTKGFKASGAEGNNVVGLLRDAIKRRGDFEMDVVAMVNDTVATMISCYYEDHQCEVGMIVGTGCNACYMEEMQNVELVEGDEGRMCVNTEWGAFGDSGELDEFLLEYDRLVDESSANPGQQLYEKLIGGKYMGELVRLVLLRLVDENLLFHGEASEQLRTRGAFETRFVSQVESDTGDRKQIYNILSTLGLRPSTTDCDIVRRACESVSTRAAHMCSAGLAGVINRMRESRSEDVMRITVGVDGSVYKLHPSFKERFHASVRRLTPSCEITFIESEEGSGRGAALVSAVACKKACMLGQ

In the case of “Purified NS5A-D2 protein (amino acids 250 to 342) (domain or fragment)”, the maximum velocity (Vmax) of purified GCK, increase in the presence of NS5A-D2 stood at 31%.

(Values after publication PMC8780509.)
